Assay results reported in patent EP4755393A1, “USE OF PROTON PUMP REGULATOR IN PREPARATION OF DRUG” (Shanghai Quietd Biotechnology Co., Ltd., priority 2023, dated 2025).
Ends that are not written are not given here.

Tests used:
HT22 cells = assay: Quantitative detection of ROS (DCFH-DA) in the oxygen-glucose deprivation (OGD) cell model; type: cell-based; settings: Mus musculus, HT-22, OGD 16 h, 24 h reoxygenation, OGD plus vehicle = 100%, mean ± standard deviation, read-out: inhibition rate of ROS
Procedure: Cell culture: Mouse hippocampal HT22 cells were cultured in DMEM and 10% serum at 37°C in a 5% CO2 incubator.
Oxygen-glucose deprivation (OGD) cell model: HT22 cells were seeded at a density of about 1 ×10^5 into 96-well plates and cultured for 24 h in a 37°C incubator with 5% CO2/95% air in DMEM and 10% serum. After placing HT22 cells in glucose-free medium, they were transferred to a sealed container containing a 5% CO2/95% N2 mixture and incubated at 37°C for 16 h. The glucose-free medium was then replaced with a normal medium containing glucose, and the mixture was incubated for 24 h in a 37°C incubator containing 5% CO2/95% air for reoxygenation.
Experimental grouping: Normally cultured HT22 cells were used as the control group. […] After 24 h of reoxygenation, quantitative detection of ROS was performed.
Quantitative detection of ROS: Reactive oxygen species were detected using the Beyotime reactive oxygen species detection kit and the fluorescent probe DCFH-DA. […] Observation was performed under a fluorescence microscope, followed by quantification of the average fluorescence intensity using Image J software.
Data analysis: Three parallel experiments were performed. The average fluorescence intensity of the OGD plus vehicle group was set as the standard value of 100% for normalization of the fluorescence intensity of cells in each group. […]

Male SD rats [1] = assay: TTC staining of infarct volume after MCAO; type: in vivo; settings: 5 mpk, from 3 days prior to surgery once daily plus doses on day of surgery, 24 h after MCAO, vs Model + QD202 placebo, FIG. 17
Text: (§1) Experimental protocol: Male SD rats (260-280 g) were randomly assigned to the following groups: Sham + QD202 placebo group (n=6), Model + QD202 placebo group (n=6), positive control group (Edaravone-5 mpk, n=6), QD202-1 mpk group (n=6), QD202-3 mpk group (n=6), QD202-5 mpk group (n=6). The sham group served as the sham-operated group, while rats in the model group were subjected to Middle Cerebral Artery Occlusion (MCAO) for model establishment. For the edaravone-treated group, administration was initiated 3 days prior to surgery, once daily; on the day of surgery, a total of […] were given (30 min before surgery, 30 min after surgery, and 60 min after surgery). Rats in the QD202 groups received a single dose at 30 min after surgery. At 24 h postoperatively, neurological function was scored according to Table 3. Subsequently, the whole brain tissues of the rats were harvested for TTC staining to evaluate the infarct volume. […]

Male SD rats [2] = assay: Neurological function scoring after MCAO (Middle Cerebral Artery Occlusion); type: in vivo; settings: 5 mpk, from 3 days prior to surgery once daily plus doses on day of surgery; 24 h after MCAO; vs Model + QD202 placebo; FIG. 16
Text: as §1

hATP6V1B2 = hATP6V1B2 (Homo sapiens, UniProt P21281); assay: Co-immunoprecipitation of Myc-tagged hATP6V1B2 with GFP-tagged QD202 and site mutants (HEK 293 lysates, western blot); type: binding; settings: expressed from pEGFP-N3 plasmids in HEK 293, anti-GFP IP, FIG. 7A, 7B
Chain of hATP6V1B2 (P21281 whole entry): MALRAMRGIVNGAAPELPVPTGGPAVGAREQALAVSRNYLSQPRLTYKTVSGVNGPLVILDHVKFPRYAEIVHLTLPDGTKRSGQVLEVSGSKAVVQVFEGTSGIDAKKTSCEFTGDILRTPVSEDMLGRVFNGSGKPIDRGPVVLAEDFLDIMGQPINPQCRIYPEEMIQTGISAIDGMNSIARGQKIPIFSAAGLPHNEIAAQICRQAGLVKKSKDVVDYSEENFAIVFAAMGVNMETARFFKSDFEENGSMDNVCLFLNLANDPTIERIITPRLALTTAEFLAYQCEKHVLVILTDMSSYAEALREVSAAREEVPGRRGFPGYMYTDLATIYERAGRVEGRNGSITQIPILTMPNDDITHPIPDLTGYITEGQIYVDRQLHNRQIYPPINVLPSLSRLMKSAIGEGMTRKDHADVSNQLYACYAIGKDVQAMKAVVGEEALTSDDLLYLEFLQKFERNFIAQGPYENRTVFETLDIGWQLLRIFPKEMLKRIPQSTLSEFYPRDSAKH
Procedure: Expression plasmids of hATP6V1B2, QD202, site-mutated QD202(D15A), site-mutated QD202(V16A), site-mutated QD202(P13A), and site-mutated QD202(V14A) were constructed respectively. The hATP6V1B2 was co-transfected into HEK 293 cells with the expression plasmids of QD202, site-mutated QD202(D15A), site-mutated QD202(V16A), site-mutated QD202(P13A) and site-mutated QD202(V14A), respectively, and cellular proteins were extracted 48 h after transfection. Table 1: Plasmid sequences
Protein extraction was performed using Pierce RIPA lysis buffer. Taking cells in a 60 mm culture dish as an example, 500 µL of Pierce RIPA lysis buffer containing protease inhibitors was added. Cells were collected and transferred to a clean 1.5 mL EP tube using a cell scraper. After mixing for 1 h on a rotary mixer at 4°C, the cells were centrifuged at 13,000 rpm at 4°C for 10 min to remove cell debris. The hATP6V1B2 was equally divided into […], which were then mixed separately with the cell lysates transfected with QD202, site-mutated QD202(P13A), site-mutated QD202(V14A), site-mutated QD202(D15A), and site-mutated QD202(V16A), 30 µL of the supernatant was taken and mixed with 10 µL of 4× loading buffer, followed by boiling at 100°C for 5 min and storage at -20°C; 2 µL of the antibody (Anti-GFP, Roche, 11814460001) was added to the remaining 470 µL of the protein lysate, and the mixture was incubated overnight (about 16-18 h) on a rotary shaker at 4°C. 30 µL of Protein G Sepharose beads (Roche, 11243233001) were placed in an EP tube and washed three times with Pierce RIPA lysis buffer to eliminate interference from the original stock solution. The protein that had been incubated with the antibody overnight was added to the Sepharose beads, followed by mixing and incubation at 4°C for 2 h to ensure sufficient binding between the antibody and the protein. The mixture was centrifuged at 4000 rpm for 1 min. The supernatant was aspirated off, followed by the addition of 600 µL of Pierce RIPA lysis buffer. The tube was gently inverted, followed by centrifugation to collect the supernatant. The above steps were repeated three times to wash away non-specifically bound proteins. Finally, 30 µL of 1×loading buffer was added, the mixture was mixed well, heated at 60°C for 20 min to denature the protein, and then stored at -20°C. The protein was examined by western blot (Myc-Tag (9B11) Mouse mAb, CST, 2276S; Anti-GFP, Roche, 11814460001).
The hATP6V1B2 was co-transfected into the host cell line HEK 293 with the expression plasmids of QD202, site-mutated QD202(P13A), site-mutated QD202(V14A), site-mutated QD202(D15A) and site-mutated QD202(V16A), respectively. […] It is therefore hypothesized that valine at position 16 of QD202 is one of the key amino acids for the binding between hATP6V1B2 and QD202, whereas proline at position 13, valine at position 14 and aspartic acid at position 15 can be replaced with alanine, as illustrated in FIG. 7A and FIG. 7B.

Compound	inhibition at 200 µM (HT22 cells) [%]	infarct volume (Male SD rats [1])	neurobehavioral score (Male SD rats [2])	binding to Myc-tagged hATP6V1B2 (co-immunoprecipitation) (hATP6V1B2)
CC1=NN(c2ccccc2)C(=O)C1 [Edaravone]	63.8 ± 10.9	significantly lower than that of the Model + QD202 placebo group, with a statistically significant difference (p<0.01)	significantly lower than that of the Model + QD202 placebo group with a statistically significant difference (p<0.01)	
QD202(D15A): QD202 in which aspartic acid at position 15 was substituted with alanine; expressed from pEGFP-N3 plasmid (YGRKKRRQRRRSPVAVVCS; left off: large carriers)				also bind to
QD202(P13A): QD202 in which proline at position 13 was substituted with alanine; expressed from pEGFP-N3 plasmid (YGRKKRRQRRRSAVDVVCS; not fully specified)				also bind to
QD202(V14A): QD202 in which valine at position 14 was substituted with alanine; expressed from pEGFP-N3 plasmid (YGRKKRRQRRRSPADVVCS; not fully specified)				also bind to
QD202(V16A): QD202 in which valine at position 16 was substituted with alanine; expressed from pEGFP-N3 plasmid (YGRKKRRQRRRSPVDAVCS; not fully specified)				significantly reduced
